According to article PMC7523096 (bioRxiv, 2020):
Where a chain is given by its changes, count along the chain named.

B1: CC9.1 mAb (antibody, V domains shown)
VH: EVQLVESGGGLVQPGRSLRLSCVAPGFTLGGYGMHWVRQAPGKGLEWVGLISYDGSVQKYGSSVKGRFTISKDNSKNTLYLEMNSLRADDTAVYFCVKGASLGDNWGQGTLVTVSS
VL: EIVMTQSPLSLPVTLGQPASISCRSSQSLVYSDGDTYMSWFHQRPGQSPRRLIYKVSNRDSGVPDRFSGSGSGTDFTLKISRVEAEDVGVYYCMQGTHWPYTFGPGTKVEIK
B2: CC9.2 mAb (IgG) (antibody, V domains shown)
VH: B1 VH
VL: B1 VL with S61F
B3: CC9.3 mAb (IgG) (antibody, V domains shown)
VH: QVQLQESGPGLVKPSETLSLTCTVSGGSIRSDFWSWIRQFPGKGLEWIGYIYYSGSTNYNPSLESRVTISVDTSKNEFSLKLNYVTAADTAIYYCARETRWNWLDSWGQGTLVTVSS
VL: DIVMTQSPDSLAVSLGERASINCKSSQTISYISNNKNYLAWYQQKPGQPPRLLIYWASTRESGVPDRFSGGGFGTDFTLTISSLQAEDVAVYYCQQYFNTPWTFGQGTKVEIK
B4: CC40.8 mAb (IgG) (antibody, V domains shown)
VH: EVQLLESGGGLVQPGGSLRLSCAASGFTFSSYVMTWARQAPGKGLEWVSAISGTGYTYYADSVKGRFTVSRDNSKNTLFLQMSSLRAEDTAVYYCAITMAPVVWGQGTTVTVSS
VL: SYELTQPPSVSVSPGQTARITCSGDALPKRYAYWYQQKSGQAPILVIYEDKKRPSGIPERLSGSKSGTVATLTISGAQVEDEADYYCYSTDSSGNHAVFGGGTQLTVL
B5: second SARS-CoV-2/HCoV-HKU1 cross-reactive mAb from the CC40 donor (other than CC40.8; name not printed in the text) (antibody, V domains shown)
VH: EVQLVESGGGVVQPGRSLRLSCVASGFTFSNYGMHWVRQAPGKGLEWVAVMSYDGSVTYYGDSVRGRFTISRDNSKNTLYLQMSSLRTDDTGVYYCAKGQPLDDIWGLGTLVTVSS
VL: EIVMTQSPLSLPVSLGQSASISCRSSQSLVHTDGITYLSWFQQRPGQSPRRLLYKVSNRDSGVPDRFSGSGSGTDFTLKISRVEAEDVGVYYCLQGTYWPWTFGQGTKVEIK

target: SARS-CoV-2 RBD-SD1-2 (residue 320-681) (SARS-CoV-2, Wuhan-Hu-1 (MN908947), UniProt P0DTC2); assay: BLI

| Binder | binding result |
| --- | --- |
| B1 | no binding |
| B2 | no binding |
| B3 | no binding |
| B4 | no binding |
| B5 | no binding |

target: SARS-CoV-2 receptor-binding domain-RBD (residue 320-527) (SARS-CoV-2, Wuhan-Hu-1 (MN908947), UniProt P0DTC2); assay: BLI

| Binder | binding result |
| --- | --- |
| B1 | no binding |
| B2 | no binding |
| B3 | no binding |
| B4 | no binding |
| B5 | no binding |

target: SARS-CoV-2 RBD-SD1 (residue 320-591) (SARS-CoV-2, Wuhan-Hu-1 (MN908947), UniProt P0DTC2); assay: BLI

| Binder | binding result |
| --- | --- |
| B1 | no binding |
| B2 | no binding |
| B3 | no binding |
| B4 | no binding |
| B5 | no binding |

target: SARS-CoV-2 N-terminal domain-NTD (residue 1-290) (SARS-CoV-2, Wuhan-Hu-1 (MN908947), UniProt P0DTC2); assay: BLI

| Binder | binding result |
| --- | --- |
| B1 | no binding |
| B2 | no binding |
| B3 | no binding |
| B4 | no binding |
| B5 | no binding |
